Experimental findings from patent US20240026037A1 (Memorial Sloan Kettering, published 2024) are described below.

The target of assay [1] is T1, Human GPA33 (recombinant protein, Novoprotein) (human, UniProt Q99795 22-235).
T1 construct: Bought recombinant protein immobilized on a CM5 chip; also called GPA33 antigen; tumor antigen GPA33
T1 sequence: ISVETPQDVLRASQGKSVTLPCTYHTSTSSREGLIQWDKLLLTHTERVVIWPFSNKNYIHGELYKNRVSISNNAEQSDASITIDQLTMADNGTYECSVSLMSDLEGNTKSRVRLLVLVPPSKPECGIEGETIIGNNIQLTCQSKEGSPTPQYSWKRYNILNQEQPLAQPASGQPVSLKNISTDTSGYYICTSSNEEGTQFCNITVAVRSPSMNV
Kind of assay: SPR (Biacore), human GPA33 immobilized on CM5 chip, two-state fit. The procedure:
(§1) SPR analysis. Human GPA33 (Novoprotein, Summit, NJ) was immobilized on CM5 chips. Five concentrations of 2-fold serially diluted huA33 IgG1 or huA33-BsAbs (starting at 20 nM) were flowed over the chip using a Biacore™ T100 system (GE Healthcare, Chicago, IL). Binding kinetics of huA33 were measured at 25° C. and binding kinetics of huA33-BsAbs were measured at both 25° C. and 37° C. The sensorgrams were fitted with two state binding model for both to derive kinetic parameters.
In general terms: In SPR one partner is held on a chip, and binding of the other changes the refractive index at the surface.

For assay [2], the target named is T1, Human GPA33 (recombinant protein, …). Description: SPR (Biacore), human GPA33 immobilized on CM5 chip, two-state fit, ka1. The procedure: as §1
For assay [3] the target is unchanged. Description: SPR (Biacore), human GPA33 immobilized on CM5 chip, two-state fit, kd1. Put shortly:
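The off-rate (kd1) was measured by surface plasmon resonance on a Biacore T100, with recombinant human GPA33 (Novoprotein) immobilised on a CM5 chip. Antibodies were flowed over at five concentrations, 2-fold serial dilutions starting at 20 nM. The parent IgG1 was run at 25° C and bispecific formats at 25° C and 37° C. Sensorgrams were fitted with a two-state binding model to derive the kinetic parameters.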

For assay [4] the target is unchanged. Description: SPR (Biacore), human GPA33 immobilised on the chip; KD relative to that of BC015. Put shortly:
(§2)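 Surface plasmon resonance on a Biacore system with immobilised recombinant human GPA33 (Novoprotein) was used to determine KD by kinetic fitting. The values given are each KD divided by the KD of a reference molecule.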

The target of assay [5] is T2, Human GPA33 on GPA33+ colorectal cancer cell lines (Colo 205, LS 174T, SW 1222) (human, UniProt Q99795 22-319).
T2 construct: Endogenous GPA33 on human colorectal cancer cell lines; also called surface human GPA33; GPA33+ tumor cell lines
T2 sequence: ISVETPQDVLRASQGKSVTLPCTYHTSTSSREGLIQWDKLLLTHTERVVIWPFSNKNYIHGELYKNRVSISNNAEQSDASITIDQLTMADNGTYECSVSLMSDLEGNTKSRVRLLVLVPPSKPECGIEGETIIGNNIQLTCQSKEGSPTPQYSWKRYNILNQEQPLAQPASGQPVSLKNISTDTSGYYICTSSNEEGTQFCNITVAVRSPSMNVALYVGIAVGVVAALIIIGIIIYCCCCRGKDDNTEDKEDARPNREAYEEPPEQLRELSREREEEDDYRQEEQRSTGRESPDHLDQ
Description: flow cytometry, LS 174T cells. For orientation: Flow cytometry measures light scatter and fluorescence of single cells or particles in a stream.

In assay [6] the target is T2, Human GPA33 on GPA33+ colorectal cancer …. Kind of assay: flow cytometry, SW 1222 cells.
Assay [7] has the same target. Description: flow cytometry, Colo 205 cells; Colo 205 cells.
The target is the same in assay [8]. Description: FACS binding to LS174T cells (GPA33+).
Assay [9] shares this target. Description: FACS binding to SW1222 cells (GPA33+).
The target is the same in assay [10]. Kind of assay: FACS binding to Colo205 cells (GPA33+).
The target of assay [11] is T1, Human GPA33 (recombinant protein, …). Kind of assay: SPR (Biacore), human GPA33 immobilised on the chip; KD relative to that of TC170. Put shortly: as §2
Assay [12] has as its target T2, Human GPA33 on GPA33+ colorectal cancer …. Kind of assay: FACS titration on Colo205 cells, geometric mean MFI.
The target is the same in assay [13]. Kind of assay: FACS titration on LS174T cells, geometric mean MFI [Cont.].
Assay [14] shares this target. Description: FACS titration on SW1222 cells, geometric mean MFI [Cont.].

Where a chain is given by its changes, count along the chain named.

B1: BC105 (bispecific antibody, human IgG1, kappa, N297A)
heavy: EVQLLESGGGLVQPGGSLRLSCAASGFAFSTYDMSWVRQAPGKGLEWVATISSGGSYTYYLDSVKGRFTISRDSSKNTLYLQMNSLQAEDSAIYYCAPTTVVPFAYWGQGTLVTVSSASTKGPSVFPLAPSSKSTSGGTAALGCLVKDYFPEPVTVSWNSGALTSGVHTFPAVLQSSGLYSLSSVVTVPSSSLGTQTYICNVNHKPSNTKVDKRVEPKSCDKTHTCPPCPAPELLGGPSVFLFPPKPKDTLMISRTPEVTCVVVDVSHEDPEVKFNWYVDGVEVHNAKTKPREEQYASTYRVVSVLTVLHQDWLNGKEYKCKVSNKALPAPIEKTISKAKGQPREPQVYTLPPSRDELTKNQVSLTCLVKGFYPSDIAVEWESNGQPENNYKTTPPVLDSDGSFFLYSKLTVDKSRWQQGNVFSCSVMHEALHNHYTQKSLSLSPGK
light: DIQMTQSPSSLSVSVGDRVTITCKASQNVRTVVAWYQQKPGLAPKTLIYLASNRHTGVPSRFSGSGSGTDFTFTISSLQPEDIATYFCQQHWSYPLTFGQGTKVEVKRTVAAPSVFIFPPSDEQLKSGTASVVCLLNNFYPREAKVQWKVDNALQSGNSQESVTEQDSKDSTYSLSSTLTLSKADYEKHKVYACEVTHQGLSSPVTKSFNRGECGGGGSGGGGSASHVKLQESGPGLVQPSQSLSLTCTVSGFSLTDYGVHWVRQSPGKGLEWLGVIWSGGGTAYNTALISRLNIYRDNSKNQVFLEMNSLQAEDTAMYYCARRGSYPYNYFDAWGCGTTVTVSSGGGGSGGGGSGGGGSQAVVIQESALTTPPGETVTLTCGSSTGAVTASNYANWVQEKPDHCFTGLIGGHNNRPPGVPARFSGSLIGDKAALTIAGTQTEDEAIYFCALWYSDHWVIGGGTRLTVLG
notes: Previously described GPA33xDOTA IgG-[L]-scFv clone; The light chain entry carries the anti-DOTA scFv at its C-terminus; also called GPA33 BsAb-IgG (BC105); GPA33 clone BC105 BsAb
Regarding B1, in [1], the Kd (as a rule, the concentration at which binding is half-saturated) is 1.21 nM; the ka2 was 0.00238 s⁻¹; the kd2 was 0.000697 s⁻¹. Further, the on-rate constant (kon) (in general, the rate constant with which the complex forms) in [2] amounted to 4.43e+06 M⁻¹ s⁻¹. Besides, the off-rate constant (koff) (usually the first-order rate constant of dissociation) in assay [3] came out at 0.0236 s⁻¹. For the same molecule, the “Fold change of KD (relative to BC015, lower is better)” value in [4] is 10.2.

B2: TC160 (bispecific antibody)
chain: DIQMTQSQSSLSTSVGDRVTITCKASQNVRTVVAWYQQKPGKSPKTLIYLASNRHTGVPSRFSGSGSGTEFTLTISNVQPEDFADYFCLQHWSYPLTFGSGTKLEIKRGGGGSGGGGSGGGGSGGGGSGGGGSGGGGSEVQLVESGGGLVKPGGSLRLSCAASGFAFSTYDMSWVRQAPGKRLEWVATISSGGSYTYYLDSVKGRFTISRDNAKNSLYLQMNSLRAEDTAVYYCAPTTVVPFAYWGQGTLVTVSSGGGGSGGGGSGGGGSGGGGSHVQLVESGGGLVQPGGSLRLSCAASGFSLTDYGVHWVRQAPGKGLEWLGVIWSGGGTAYNTALISRFTISRDNSKNTLYLQMNSLRAEDTAVYYCARRGSYPYNYFDAWGCGTLVTVSSGGGGSGGGGSGGGGSGGGGSGGGGSGGGGSQAVVTQEPSLTVSPGGTVTLTCGSSTGAVTASNYANWVQQKPGQCPRGLIGGHNNRPPGVPARFSGSLLGGKAALTLLGAQPEDEAEYYCALWYSDHWVIGGGTKLTVLGTPLGDTTHTSGKPLDGEYFTLQIRGRERFEMFRELNEALELKDAQAGKEPGGSGGAPHHHHHH
notes: Previously described GPA33xDOTA SADA clone, with the other VH/VL orientation than TC159; Carries the p53 SADA (tetramerization) domain
For the molecule B2, the IC50 (commonly the concentration that inhibits the measured activity by half) came out at 0.56 nM in assay [5] and 0.36 nM in assay [6]. Further, the midpoint of the response in [7], the EC50, lay at 1.2 nM. The “fold change of binding EC50 (relative to TC170, lower is better)” value in assay [8] stood at 1.81; in assay [9], 0.22; in assay [10], 1.62. Further, in assay [1], the Kd was determined as 0.0518 nM. The ka2 in assay [1] was determined as 0.00678 s⁻¹. Also, in assay [1], the kd2 is 0.000654 s⁻¹. Further, the kon in [2] came to 3.43e+06 M⁻¹ s⁻¹. The off-rate constant (koff) in assay [3] was found to be 0.00202 s⁻¹. In [11], the “Fold change of KD (relative to TC170, lower is better)” value was 3.4.

B3: TC234 (bispecific antibody)
chain: EVQLVESGGGLVDPGGSLRLSCAASGFAFSTYDMSWVRQAPGKGLEWVSTISSGGSYTYYADSVKGRFTISRDNAKNSLYLQMNSLRAEDTAVYYCAPTTVVPFAYWGQGTLVTVSAGGGGSGGGGSGGGGSGGGGSGGGGSGGGGSDIQMTQSPSSLSASVGDRVTITCKASQNVRTVVAWYQQKPGKAPKTLIYLASNRHTGVPSRFSGSGSGTEFTLTISNLQPEDFATYYCLQHWSYPLTFGSGTKLEVKRGGGGSGGGGSGGGGSGGGGSHVQLVESGGGLVQPGGSLRLSCAASGFSLTDYGVHWVRQAPGKGLEWLGVIWSGGGTAYNTALISRFTISRDNSKNTLYLQMNSLRAEDTAVYYCARRGSYPYNYFDAWGCGTLVTVSSGGGGSGGGGSGGGGSGGGGSGGGGSGGGGSQAVVTQEPSLTVSPGGTVTLTCGSSTGAVTASNYANWVQQKPGQCPRGLIGGHNNRPPGVPARFSGSLLGGKAALTLLGAQPEDEAEYYCALWYSDHWVIGGGTKLTVLGTPLGDTTHTSGKPLDGEYFTLQIRGRERFEMFRELNEALELKDAQAGKEPGGSGGAPHHHHHH
notes: pI variant of TC170 with a single mutation; Carries the p53 SADA (tetramerization) domain; also called GPA33xDOTA SADA; pI variant of TC170
Take B3: the concentration giving a half-maximal response (EC50) – broadly, the concentration that produces a half-maximal response – in assay [8] was determined as 0.21 nM; in [9], 2.05 nM; in assay [10], 0.71 nM; in assay [12], 0.71 nM; in assay [13], 0.21 nM; in assay [14] it was 2.05 nM. In addition, the “fold change of binding EC50 (relative to TC170, lower is better)” value in assay [8] turned out to be 0.68; in assay [9], 1.24; in assay [10] it was 0.96. Besides, the equilibrium dissociation constant (Kd) in assay [1] is 0.0122 nM. The ka2 in [1] was 0.00566 s⁻¹. The kd2 in assay [1] was determined as 0.000353 s⁻¹. For the same molecule, the kon in assay [2] stood at 4.65e+06 M⁻¹ s⁻¹. For the same molecule, the koff in assay [3] turned out to be 0.000966 s⁻¹. Further, the “Fold change of KD (relative to TC170, lower is better)” value in assay [11] came out at 0.8.

B4: TC213 (bispecific antibody)
chain: B3 chain with K76A
notes: pI variant of TC170 with a double mutation in the GPA33 scFv; Carries the p53 SADA (tetramerization) domain; also called GPA33xDOTA SADA; pI variant of TC170
Regarding B4, the EC50 was 0.23 nM in assay [8]; 1.05 nM in assay [9]; 0.55 nM in [10]; 0.55 nM in [12]; 0.23 nM in assay [13]; 1.05 nM in assay [14]. The “fold change of binding EC50 (relative to TC170, lower is better)” value stood at 0.74 in [8], 0.64 in assay [9] and 0.74 in assay [10]. Moreover, in assay [1], the dissociation constant Kd worked out at 0.0218 nM. For the same molecule, in [1], the ka2 is 0.00636 s⁻¹. Further, the kd2 in [1] was determined as 0.000611 s⁻¹. Besides, the kon in assay [2] was 3.44e+06 M⁻¹ s⁻¹. Moreover, the off-rate (koff) in assay [3] is 0.000857 s⁻¹. For the same molecule, in [11], the “Fold change of KD (relative to TC170, lower is better)” value stood at 1.4.

B5: BC155 (bispecific antibody, human IgG1, kappa, N297A)
heavy: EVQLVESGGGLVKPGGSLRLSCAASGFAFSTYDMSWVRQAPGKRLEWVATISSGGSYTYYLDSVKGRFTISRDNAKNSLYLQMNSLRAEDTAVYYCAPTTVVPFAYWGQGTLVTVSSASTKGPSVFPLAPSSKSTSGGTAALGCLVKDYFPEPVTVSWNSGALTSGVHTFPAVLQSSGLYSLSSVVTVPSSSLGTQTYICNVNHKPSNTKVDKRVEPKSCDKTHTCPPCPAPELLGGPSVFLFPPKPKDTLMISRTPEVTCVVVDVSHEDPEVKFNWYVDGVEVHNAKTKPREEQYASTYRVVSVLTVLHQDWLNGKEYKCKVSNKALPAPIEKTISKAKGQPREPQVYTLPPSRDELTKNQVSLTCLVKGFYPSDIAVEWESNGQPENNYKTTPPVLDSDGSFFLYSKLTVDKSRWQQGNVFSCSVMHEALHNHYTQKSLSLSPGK
light: DIQMTQSQSSLSTSVGDRVTITCKASQNVRTVVAWYQQKPGKSPKTLIYLASNRHTGVPSRFSGSGSGTEFTLTISNVQPEDFADYFCLQHWSYPLTFGSGTKLEIKRTVAAPSVFIFPPSDEQLKSGTASVVCLLNNFYPREAKVQWKVDNALQSGNSQESVTEQDSKDSTYSLSSTLTLSKADYEKHKVYACEVTHQGLSSPVTKSFNRGECTSGGGGSGGGGSGGGGSHVQLVESGGGLVQPGGSLRLSCAASGFSLTDYGVHWVRQAPGKGLEWLGVIWSGGGTAYNTALISRFTISRDNSKNTLYLQMNSLRAEDTAVYYCARRGSYPYNYFDAWGCGTLVTVSSGGGGSGGGGSGGGGSGGGGSGGGGSGGGGSQAVVTQEPSLTVSPGGTVTLTCGSSTGAVTASNYANWVQQKPGQCPRGLIGGHNNRPPGVPARFSGSLLGGKAALTLLGAQPEDEAEYYCALWYSDHWVIGGGTKLTVLG
notes: Previously described GPA33xDOTA IgG-[L]-scFv clone; The light chain entry carries the anti-DOTA scFv at its C-terminus
Take B5: in assay [1], the equilibrium dissociation constant (Kd) is 0.171 nM, the ka2 amounted to 0.00328 s⁻¹ and the kd2 came out at 0.00164 s⁻¹. Moreover, the kon in assay [2] turned out to be 4.13e+06 M⁻¹ s⁻¹. Also, in assay [3], the off-rate (koff) is 0.00212 s⁻¹. Besides, the “Fold change of KD (relative to BC015, lower is better)” value in assay [4] was 1.45.
